From publication PMC11437284
Blank lines part the entries; values can stand above or below the molecule they belong to.

Tests used:
Assay in all cases: SPR
[1] = target: D1 domain of FcμR (FcμR-D1) (human) (UniProt O60667)
cat Fcμ–J complex (cat) = target: cat Fcμ–J complex (cat)
[2] = target: human Fcμ–J–CD5L complex (human) (UniProt P01871)
[3] = target: human Fcμ–J complex (pentameric IgM core: IgM-Fc pentamer and the J chain) (human) (UniProt P01871)

- Kd [1]: 0.4 nM
Molecule: human Fcμ–J–CD5L complex (from UniProt P01871 106-433; P01591 23-159; O43866 20-347)

- Kd (cat Fcμ–J complex (cat)): 14.4 nM
Molecule: cat CD5L (3-SRCR isoform) (from UniProt A0A1E1GEY0 20-355) (natural protein)

- Kd [2]: 8.8 nM
B1: D1 domain of FcμR (FcμR-D1) (domain or fragment)
chain: RILPEVKVEGELGGSVTIKCPLPEMHVRIYLCREMAGSGTCGTVVSTTNFIKAEYKGRVTLKQYPRKNLFLVEVTQLTESDSGVYACGAGMNTDRGKTQKVTLNVHS

- Kd [3]: 18.1 nM
B2: human CD5L (CD5 antigen-like), wild type (natural protein)
chain: SPSGVRLVGGLHRCEGRVEVEQKGQWGTVCDDGWDIKDVAVLCRELGCGAASGTPSGILYEPPAEKEQKVLIQSVSCTGTEDTLAQCEQEEVYDCSHDEDAGASCENPESSFSPVPEGVRLADGPGHCKGRVEVKHQNQWYTVCQTGWSLRAAKVVCRQLGCGRAVLTQKRCNKHAYGRKPIWLSQMSCSGREATLQDCPSGPWGKNTCNHDEDTWVECEDPFDLRLVGGDNLCSGRLEVLHKGVWGSVCDDNWGEKEDQVVCKQLGCGKSLSPSFRDRKCYGPGVGRIWLDNVRCSGEEQSLEQCQHRFWGFHDCTHQEDVAVICSG

- Kd [3]: 13.2 nM
B3: human CD5L C191S (natural protein)
chain: SPSGVRLVGGLHRCEGRVEVEQKGQWGTVCDDGWDIKDVAVLCRELGCGAASGTPSGILYEPPAEKEQKVLIQSVSCTGTEDTLAQCEQEEVYDCSHDEDAGASCENPESSFSPVPEGVRLADGPGHCKGRVEVKHQNQWYTVCQTGWSLRAAKVVCRQLGCGRAVLTQKRSNKHAYGRKPIWLSQMSCSGREATLQDCPSGPWGKNTCNHDEDTWVECEDPFDLRLVGGDNLCSGRLEVLHKGVWGSVCDDNWGEKEDQVVCKQLGCGKSLSPSFRDRKCYGPGVGRIWLDNVRCSGEEQSLEQCQHRFWGFHDCTHQEDVAVICSG
